{"source": "paper PMC10576128", "molecules": {"B1": {"name": "prothymosin α (unlabeled) (natural protein)", "chain": "MSDAAVDTSSEITTKDLKEKKEVVEEAENGRDAPANGNAENEENGEQEADNEVDEEEEEGGEEEEEEEEGDGEEEDGDEDEEAESATGKRAAEDDEDDDVDTKKQKTDEDD"}}, "key": {"[1]": {"molecular_target": "prothymosin α (unlabeled) (human) (UniProt P06454)", "assay": "ITC"}, "[2]": {"molecular_target": "ProTα-H1 dimer (PH) of labeled ProTα E56C/D110C and unlabeled H1 (human) (UniProt P06454)", "assay": "FRET or BRET"}, "[3]": {"molecular_target": "ProTα E56C/D110C labeled with Alexa Fluors 488 and 594 (human) (UniProt P06454)", "assay": "FRET or BRET"}, "[4]": {"molecular_target": "ProTα-H1 dimer (PH) of labeled ProTα E56C/D110C and unlabeled H1 (human) (UniProt P06454)", "assay": "FRET or BRET", "remark": "listed apart in the source"}, "[5]": {"molecular_target": "ProTα E56C/D110C labeled with Alexa Fluors 488 and 594 (human) (UniProt P06454)", "assay": "FRET or BRET", "remark": "listed apart in the source"}, "[6]": {"molecular_target": "prothymosin α (unlabeled) (human) (UniProt P06454)", "assay": "ITC", "remark": "listed apart in the source"}, "[7]": {"molecular_target": "ProTα-H1 dimer (PH) of unlabeled ProTα and unlabeled H1 (human) (UniProt P06454)", "assay": "FRET or BRET"}}, "note": "Read-outs that look alike come from different tables or passages of the source.", "data": [{"molecule": "linker histone H1 (from UniProt P07305 1-194) (natural protein)", "values": [{"measurement": "dH", "setting": "[1]", "value": 8.37, "unit": "kcal/mol"}, {"measurement": "Kd", "setting": "[2]", "value": 120, "unit": "nM"}, {"measurement": "Kd", "setting": "[3]", "value": 1.2, "unit": "nM"}, {"measurement": "Kd", "setting": "[4]", "value": 13000, "unit": "nM"}, {"measurement": "Kd", "setting": "[5]", "value": 0.92, "unit": "nM"}, {"measurement": "dH", "setting": "[6]", "value": 13.9, "unit": "kcal/mol"}]}, {"molecule": "B1", "values": [{"measurement": "Kd", "setting": "[7]", "value": 3000, "unit": "nM"}]}]}
